Substitutions are numbered along the chain they refer to.
B1: His-tagged wild-type human BAF, recombinant (natural protein, UniProt O75531 1-89, looked up)
chain: MTTSQKHRDFVAEPMGEKPVGSLAGIGEVLGKKLEERGFDKAYVVLGQFLVLKKDEDLFREWLKDTCGANAKQSRDCFGCLREWCDAFL
B2: His-tagged human BAF mutant 14A, recombinant (natural protein, UniProt O75531 1-89, looked up)
chain: B1 chain with P14A
B3: His-tagged human BAF mutant 41E, recombinant (natural protein, UniProt O75531 1-89, looked up)
chain: B1 chain with K41E
B4: His-tagged human BAF mutant 53E, recombinant (natural protein, UniProt O75531 1-89, looked up)
chain: B1 chain with K53E
B5: His-tagged human BAF mutant 47E, recombinant (natural protein, UniProt O75531 1-89, looked up)
chain: B1 chain with G47E

Molecular target: the molecule itself
Experiment: SEC

Stoichiometry N, 2:
B1
B2
B3
B4
B5

Source: article PMC2173821 (The Journal of Cell Biology, 2002)
